One experiment addresses human Orai1 (human, UniProt Q96D31 1-301). The experiment in a line: cell-based or functional assay.
The target of experiment [1] is T1, hOrai1-mOrai1 ECL2 (RPTSKPPA) protein (human/mouse chimera, UniProt Q96D31 1-301).
T1 construct: also called Ch
The experiment in a line: FACS, 293EBNA transfectants [D00032 FIG. 17B]. The method, then: (§1) FACS binding analysis. Transfected 293EBNA cells transiently expressed hOrai1-mOrai1 ECL2 or mOrai1-hOrai1 ECL2 chimera. The transfected cells were harvested at 48 hours post-transfection. Cells transfected with pcDNA3.1 were used as negative controls. Cells were washed once with ice-cold 1×PBS, resuspended in ice-cold FACS buffer (1×D-PBS+2% goat serum), and 2×10⁵ cells in 100 μL were stained per antibody combination. All antibody incubation steps were performed on ice for 1 hour. […] Next, the unlabelled antibody was detected using goat F(ab′)₂ anti-mouse or anti-human IgG-phycoerythrin (IgG-PE), followed by a wash with 200 μL of ice-cold FACS buffer before flow cytometry analysis. Unstained cells and cells stained with detecting antibodies were used as negative controls. The values of relative level of fluorescence were calculated using FCS Express (De Novo Software) and mean values were calculated using log-transformed data (geometric mean). […]
(§2) Representative results of FACS analysis of binding to the mutant hOrai1-mOrai1 ECL2 chimera described above by exemplary anti-hOrai1 antibodies of the present invention are shown in FIG. 17A-D, Table 10A and Table 10B below. Table 10A (Campaign 1) and Table 10B (Campaign 2) show the gain in binding ability of exemplary monoclonal antibodies to hOrai 1-mOrai 1 ECL2 chimera mutants as determined by FACS.

Experiment [2] deals with T2, hOrai1-mOrai1 ECL2 (…) protein (human/mouse chimera, UniProt Q96D31 1-301).
T2 construct: also called Ch
Description: FACS, 293EBNA transfectants [D00032 FIG. 17B]. The method, then: as §1, §2
In general terms: A flow cytometer gives signals particle by particle.

human Orai1, sequence (Q96D31 whole entry): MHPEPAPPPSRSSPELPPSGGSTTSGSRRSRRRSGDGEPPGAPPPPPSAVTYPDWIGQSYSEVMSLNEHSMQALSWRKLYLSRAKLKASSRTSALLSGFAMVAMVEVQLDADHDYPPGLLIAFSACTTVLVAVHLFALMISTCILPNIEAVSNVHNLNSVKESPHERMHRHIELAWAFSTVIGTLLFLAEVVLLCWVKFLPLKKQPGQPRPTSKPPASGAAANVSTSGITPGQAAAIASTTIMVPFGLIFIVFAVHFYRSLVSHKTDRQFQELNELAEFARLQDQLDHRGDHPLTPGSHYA
T2 sequence (Q96D31 other isoform, or with tags, fused parts or gaps): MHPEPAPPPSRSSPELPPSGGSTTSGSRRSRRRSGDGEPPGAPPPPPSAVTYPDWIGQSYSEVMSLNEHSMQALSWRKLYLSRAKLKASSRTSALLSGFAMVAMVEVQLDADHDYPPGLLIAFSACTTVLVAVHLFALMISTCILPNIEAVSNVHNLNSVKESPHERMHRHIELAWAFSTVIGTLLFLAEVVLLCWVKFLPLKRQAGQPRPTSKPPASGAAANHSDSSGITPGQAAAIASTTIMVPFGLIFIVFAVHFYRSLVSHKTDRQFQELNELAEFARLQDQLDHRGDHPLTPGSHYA
T1 sequence (Q96D31 other isoform, or with tags, fused parts or gaps): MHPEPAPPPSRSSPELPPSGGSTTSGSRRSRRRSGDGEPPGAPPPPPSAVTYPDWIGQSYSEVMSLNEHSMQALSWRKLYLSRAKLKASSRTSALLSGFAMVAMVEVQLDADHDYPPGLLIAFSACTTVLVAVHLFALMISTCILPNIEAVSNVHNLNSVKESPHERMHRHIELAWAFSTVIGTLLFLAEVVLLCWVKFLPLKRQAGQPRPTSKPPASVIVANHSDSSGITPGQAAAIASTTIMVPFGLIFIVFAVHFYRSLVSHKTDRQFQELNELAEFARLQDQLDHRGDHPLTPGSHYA

B1: mAb 2B4.1 (antibody, human IgG2, lambda, V domains shown)
VH: QVQLVQSGAEVKKPGASVKVSCKASGYTFTDYYMHWVRQAPGQGLEWMGWINPNSGGTNYVQKFQDRVTMTRDTSITTAYMELTRLRSDDTAVYYCAREEGDYGMDVWGQGTTVTVSS
VL: QSVLTQPPSVSGAPGQRVTISCTGSNSNIGTGYDVHWYQKLPGTAPRLLIYSHFNRPSGVPDRFSGSTSGTSASLAITGLQAEDEADYYCQSYDSSLSGSVFGGGTKLTVLG
Take B1: the “IC50, NFAT-mediated luciferase assay (FIG. 6C)” value with human Orai1 turned out to be 1800 nM. In addition, the binding result in experiment [1] and in experiment [2] was “binds” in each case.

Source of the values: patent US20120231006A1 (Amgen, published 2012).
